Laboratory results reported in FireProtDB (doi:10.1016/0022-2836(74)90188-0).

Conditions: Bos taurus, Thermal, DSC, glycine 0.04 M, reversible: yes(>90%)

Cytochrome c wild type, P62894, sequence (P62894 whole entry): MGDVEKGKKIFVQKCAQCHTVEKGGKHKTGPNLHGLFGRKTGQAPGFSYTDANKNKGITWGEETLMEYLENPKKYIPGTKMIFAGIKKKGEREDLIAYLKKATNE

## Cytochrome c wild type, P62894
pH 2.81
  Tm: 52.5 °C
  unfolding enthalpy (calorimetric): 60 kcal/mol
pH 2.92
  Tm: 54 °C
  heat capacity change of unfolding: 1.43 kcal/mol/K
  unfolding enthalpy (calorimetric): 65 kcal/mol
pH 3.05
  Tm: 59 °C
  heat capacity change of unfolding: 1.48 kcal/mol/K
  unfolding enthalpy (calorimetric): 70.3 kcal/mol
pH 3.12
  Tm: 61 °C
  heat capacity change of unfolding: 1.53 kcal/mol/K
  unfolding enthalpy (calorimetric): 74.3 kcal/mol
pH 3.18
  Tm: 62 °C
  heat capacity change of unfolding: 1.36 kcal/mol/K
  unfolding enthalpy (calorimetric): 77 kcal/mol
pH 3.4
  Tm: 66 °C
  heat capacity change of unfolding: 1.48 kcal/mol/K
  unfolding enthalpy (calorimetric): 84.6 kcal/mol
pH 3.75
  Tm: 70 °C
  heat capacity change of unfolding: 1.7 kcal/mol/K
  unfolding enthalpy (calorimetric): 93.5 kcal/mol
pH 3.94
  Tm: 72 °C
  heat capacity change of unfolding: 1.65 kcal/mol/K
  unfolding enthalpy (calorimetric): 96.3 kcal/mol
pH 4.52
  Tm: 77 °C
  heat capacity change of unfolding: 1.48 kcal/mol/K
  unfolding enthalpy (calorimetric): 103 kcal/mol
pH 4.83
  Tm: 78 °C
  heat capacity change of unfolding: 1.53 kcal/mol/K
  unfolding enthalpy (calorimetric): 107 kcal/mol
